Where two headings read alike, the source gives them in different places.
T1: human LAIR-1b (alternative isoform of human LAIR-1) on transfected 293T cells (human, UniProt Q6GTX8 22-287)
T1 chain: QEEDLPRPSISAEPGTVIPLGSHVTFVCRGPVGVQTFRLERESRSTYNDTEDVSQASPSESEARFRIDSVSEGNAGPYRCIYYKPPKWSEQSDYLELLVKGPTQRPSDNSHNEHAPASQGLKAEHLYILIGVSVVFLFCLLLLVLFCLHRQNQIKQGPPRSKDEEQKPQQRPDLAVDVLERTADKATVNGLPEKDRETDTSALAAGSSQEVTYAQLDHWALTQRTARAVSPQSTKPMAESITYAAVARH

T2: cyno LAIR-1-ECD (cynomolgus monkey)
T2 construct: Recombinant, expressed in mammalian cells; also called extracellular region of cyno LAIR-1
T2 chain: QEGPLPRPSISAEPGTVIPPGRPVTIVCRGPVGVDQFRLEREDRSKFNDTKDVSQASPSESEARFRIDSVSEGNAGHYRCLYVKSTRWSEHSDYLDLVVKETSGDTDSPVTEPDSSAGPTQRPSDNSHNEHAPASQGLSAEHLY

T3: human LAIR-1-ECD (human, UniProt Q6GTX8 22-165)
T3 construct: Recombinant, expressed in mammalian cells; also called extracellular region of human LAIR-1
T3 chain: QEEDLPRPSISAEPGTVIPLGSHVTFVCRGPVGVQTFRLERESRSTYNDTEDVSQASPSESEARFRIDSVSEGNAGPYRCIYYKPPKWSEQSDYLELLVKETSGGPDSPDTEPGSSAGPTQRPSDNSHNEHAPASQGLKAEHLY

T4: mouse LAIR-1 (form in the assay not stated) (mouse, UniProt Q8BG84 22-144, limits assumed)
T4 sequence: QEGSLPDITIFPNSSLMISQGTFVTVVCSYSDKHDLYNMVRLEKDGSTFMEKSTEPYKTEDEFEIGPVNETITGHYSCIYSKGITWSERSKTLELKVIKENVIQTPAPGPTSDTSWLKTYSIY

T5: human MARCO expressed on cells (721.221-MARCO, 293T-MARCO) (human, UniProt Q9UEW3 1-520)
T5 construct: also called 721.221 cells expressing MARCO
T5 sequence: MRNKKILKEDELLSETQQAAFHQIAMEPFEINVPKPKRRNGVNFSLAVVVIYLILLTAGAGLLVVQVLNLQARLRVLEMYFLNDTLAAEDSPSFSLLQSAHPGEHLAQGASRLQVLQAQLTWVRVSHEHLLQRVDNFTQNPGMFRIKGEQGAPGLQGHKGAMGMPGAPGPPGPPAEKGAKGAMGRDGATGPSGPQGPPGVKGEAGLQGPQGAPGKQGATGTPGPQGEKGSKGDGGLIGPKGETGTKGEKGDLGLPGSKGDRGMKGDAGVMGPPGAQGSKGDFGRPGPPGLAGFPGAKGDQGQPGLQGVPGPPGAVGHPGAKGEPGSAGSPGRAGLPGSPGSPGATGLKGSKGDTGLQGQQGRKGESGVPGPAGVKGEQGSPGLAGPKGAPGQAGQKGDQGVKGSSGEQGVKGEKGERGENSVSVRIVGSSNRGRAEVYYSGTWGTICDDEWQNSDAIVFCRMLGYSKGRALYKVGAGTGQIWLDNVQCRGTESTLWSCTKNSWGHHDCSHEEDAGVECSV

B1: human LAIR-1-Fc (Fc fusion)
chain: QEEDLPRPSISAEPGTVIPLGSHVTFVCRGPVGVQTFRLERESRSTYNDTEDVSQASPSESEARFRIDSVSEGNAGPYRCIYYKPPKWSEQSDYLELLVKETSGGPDSPDTEPGSSAGPTQRPSDNSHNEHAPASQGLKAEHLY
notes: also called biotinylated human LAIR-1-Fc; not shown: a Fc region

Columns and labels:
[1] = target: T6, cyno LAIR-1-CD3ζ chimeric receptor on NFAT-GFP reporter cells (cynomolgus monkey; human); test: flow cytometry on cyno LAIR-1 reporter cells, PE anti-human Fc secondary, MFI (panel Cynomolgus Monkey LAIR1 Cells)
T6 construct: domain: transmembrane/intracellular domain; also called cyno LAIR-1-CD3ζ-NFAT-GFP reporter cells; cyno LAIR-1 reporter cells

[2] = target: T7, human LAIR-1-CD3ζ chimeric receptor on NFAT-GFP reporter cells (human, UniProt P20963 31-164, limits assumed); test: flow cytometry on human LAIR-1 reporter cells, PE anti-human Fc secondary, MFI (panel Human LAIR1 Cells)
T7 construct: domain: transmembrane/intracellular domain; also called human LAIR-1-CD3ζ-NFAT-GFP reporter cells; human LAIR-1 reporter cells

[3] = target: T6, cyno LAIR-1-CD3ζ chimeric receptor on …; test: cell-based or functional assay
[4] = target: T1, human LAIR-1b (alternative isoform of …); test: flow cytometry on cells expressing human LAIR-1b, PE anti-human Fc secondary, MFI (panel Human LAIR1 (Truncated) Cells)
[5] = target: T7, human LAIR-1-CD3ζ chimeric receptor on …; test: cell-based or functional assay
[6] = target: T7, human LAIR-1-CD3ζ chimeric receptor on …; test: cell-based or functional assay; remark: listed apart in the source
Target sequence in this assay (P20963 other isoform, or with tags, fused parts or gaps mutant limits assumed): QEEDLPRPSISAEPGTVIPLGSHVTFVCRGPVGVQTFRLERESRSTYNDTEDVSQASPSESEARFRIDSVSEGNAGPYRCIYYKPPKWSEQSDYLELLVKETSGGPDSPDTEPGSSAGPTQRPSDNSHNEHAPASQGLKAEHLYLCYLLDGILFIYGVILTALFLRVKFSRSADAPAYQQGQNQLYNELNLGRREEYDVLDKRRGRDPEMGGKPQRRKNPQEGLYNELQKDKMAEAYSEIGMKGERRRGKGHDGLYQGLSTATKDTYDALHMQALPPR

[7] = target: T6, cyno LAIR-1-CD3ζ chimeric receptor on …; test: cell-based or functional assay; remark: listed apart in the source
Target sequence in this assay (P20963 other isoform, or with tags, fused parts or gaps mutant limits assumed): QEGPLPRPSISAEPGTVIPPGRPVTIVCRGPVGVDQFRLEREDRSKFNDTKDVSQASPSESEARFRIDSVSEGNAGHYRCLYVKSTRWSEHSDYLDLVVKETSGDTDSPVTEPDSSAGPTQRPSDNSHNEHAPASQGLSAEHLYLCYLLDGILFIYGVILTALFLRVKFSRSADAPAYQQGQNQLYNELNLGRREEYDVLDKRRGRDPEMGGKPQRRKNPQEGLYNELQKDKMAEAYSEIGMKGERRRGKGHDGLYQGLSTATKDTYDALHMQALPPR

human LAIR-1-Fc = target: B1; test: ELISA blocking: plate coated with 5 µg/mL human collagen type 1, antibody titrated, 1 µg/mL biotinylated human LAIR-1-Fc, streptavidin-HRP, OD650
cyno LAIR-1-ECD = target: T2, cyno LAIR-1-ECD; test: SPR (Biacore) as in Example 2
human LAIR-1-ECD = target: T3, human LAIR-1-ECD; test: SPR (Biacore) as in Example 2
[8] = target: T6, cyno LAIR-1-CD3ζ chimeric receptor on …; test: cell-based or functional assay; remark: listed apart in the source
[9] = target: T4, mouse LAIR-1 (form in the assay not …); test: not described
[10] = target: T7, human LAIR-1-CD3ζ chimeric receptor on …; test: cell-based or functional assay; remark: listed apart in the source
[11] = target: T7, human LAIR-1-CD3ζ chimeric receptor on …; test: cell-based or functional assay; remark: listed apart in the source
[12] = target: T7, human LAIR-1-CD3ζ chimeric receptor on …; test: cell-based or functional assay; remark: listed apart in the source
[13] = target: T5, human MARCO expressed on cells …; test: flow cytometry, Fc protein at 10 µg/mL on 721.221 cells expressing MARCO, PE anti-Fc secondary

Binder	IC50 (read off the curve): % GFP+ cyno LAIR-1 reporter cells co-cultured with bEnd.3 cells [3]	IC50 (read off the curve): % GFP+ human LAIR-1 reporter cells on coated MARCO-his [6]	IC50 (read off the curve): % GFP+ human LAIR-1 reporter cells on coated collagen 1 [6]	IC50 (read off the curve): % GFP+ human LAIR-1 reporter cells on coated collagen 4 [6]	IC50 (read off the curve): % GFP+ cyno LAIR-1 reporter cells on coated MARCO-his [7]	IC50 (read off the curve): % GFP+ cyno LAIR-1 reporter cells on coated collagen 1 [7]	IC50 (read off the curve): % GFP+ cyno LAIR-1 reporter cells on coated collagen 4 [7]	IC50 (read off the curve) (human LAIR-1-Fc)	Kd (cyno LAIR-1-ECD)	koff (cyno LAIR-1-ECD)	kon (cyno LAIR-1-ECD)	Kd (human LAIR-1-ECD)	koff (human LAIR-1-ECD)	kon (human LAIR-1-ECD)	IC50 (read off the curve): % GFP+ cyno LAIR-1 reporter cells on polymerized collagen matrix [8]	binding result [13]	other results
humanized anti-LAIR-1 antibody Hz47H1.v4 (antibody, human IgG1, kappa, N297G, V domains shown, Humanized 47H1 with reengineered VH CDR2 and VL CDR2) VH: EVQLVESGGGLVQPGGSLRLSCAASGFTFNINAMNWVRQAPGKGLEWVARIRTKNYNYATFYADSVKDRFTISRDDSKNSLYLQMNSLKTEDTAVYYCVRDRAGFFAYWGQGTTVTVSS VL: DIQMTQSPSSLSASVGDRVTITCLASQTIGTWLGWYQQKPGKAPKLLIYAATSLAEGVPSRFSGSGSGTDFTLTISSLQPEDFATYYCQQLYSTPLTFGGGTKVEIKR	~0.1 nM	~0.02 nM	~0.02 nM	~0.02 nM	~0.06 nM	~0.1 nM	~0.08 nM	~3 nM	4.3 nM	0.0016 s⁻¹	390000 M⁻¹ s⁻¹	0.26 nM	0.0006 s⁻¹	2.3e+06 M⁻¹ s⁻¹	~0.09 nM	–	EC50 (read off the curve) [1]: ~1 nM; EC50 (read off the curve) [2]: ~0.2 nM; EC50 (read off the curve) [4]: ~2 nM; IC50 (M), reporter cell assay, ligand COLEC12 [5]: 1.2e-11 M; IC50 (M), reporter cell assay, ligand Collagen 1 [5]: 3.2e-11 M; IC50 (M), reporter cell assay, ligand Collagen 4 [5]: 3.2e-11 M; IC50 (M), reporter cell assay, ligand MARCO [5]: 3.2e-11 M; IC50 (M), reporter cell assay, ligand MBL [5]: 4.2e-11 M; IC50 (M), reporter cell assay, ligand Polymerized Collagen Matrix [5]: 3e-11 M; IC50 (M), reporter cell assay, ligand SPD [5]: 2e-11 M; IC50 (M), reporter cell assay, ligand Tumor Cell Collagens [5]: 1.6e-11 M; binding result [9]: no binding
anti-LAIR-1 antibody ch62G10 (antibody, V domains shown, The prefix 'ch' is not defined) VH: EVQLVETGGGLVQPKGSLKLSCATSGFTFNINAMNWVRQAPGKGLEWVARIRTKNNNFATYYADSVKDRFTISRDDSQSMLYLQMNNLKTEDTAMYYCVRGPYFDYWGQGTTLTVSS VL: DIQMTQSPASQSASLGESVTITCLASQTIGTWLAWYQQKPGKSPQLLIYAATSLADGVPSRFSGSGSGTKFSFKISNLQAEDFVTYYCQQLYSTPYTFGGGTKLEIK	~0.2 nM	~0.06 nM	~0.04 nM	~0.03 nM	~0.2 nM	~0.4 nM	~0.2 nM	~3 nM	16 nM	0.0043 s⁻¹	280000 M⁻¹ s⁻¹	0.9 nM	0.00069 s⁻¹	770000 M⁻¹ s⁻¹	~0.2 nM	–	IC50 (read off the curve): % GFP+ human LAIR-1 reporter cells co-cultured with bEnd.3 cells [10]: ~0.04 nM; IC50 (read off the curve): % GFP+ human LAIR-1 reporter cells on coated MARCO-his [11]: ~0.07 nM; IC50 (read off the curve): % GFP+ human LAIR-1 reporter cells on coated collagen 1 [11]: ~0.1 nM; IC50 (read off the curve): % GFP+ human LAIR-1 reporter cells on coated collagen 4 [11]: ~0.1 nM; IC50 (read off the curve): % GFP+ human LAIR-1 reporter cells on polymerized collagen matrix [12]: ~0.03 nM
B1	–	–	–	–	–	–	–	–	–	–	–	–	–	–	–	binds	–
LAIR-2-Fc (Fc fusion, LAIR-2 soluble protein fused to a Fc region; also called human LAIR-2-Fc; not shown: a Fc region) QEGALPRPSISAEPGTVISPGSHVTFMCRGPVGVQTFRLEREDRAKYKDSYNVFRLGPSESEARFHIDSVSEGNAGLYRCLYYKPPGWSEHSDFLELLVKESSGGPDSPDTEPGSSAGTVPGTEASGFDAP	–	–	–	–	–	–	–	–	–	–	–	–	–	–	–	binds	–

Source: patent US20220041711A1 (NGM BIOPHARMACEUTICALS, published 2022)
